Results taken from US20160152729A1 (Novo Nordisk, published 2016).
Residue numbers refer to the chain shown, from its start.

B1: mAb 1F56 (antibody, V domains shown)
VH: DVQLQESGPGLVKPSQSLSLTCTVSGYSITSDYAWNWIRQFPGNKLEWMGYISYSGSTSYNPSLKSRISITRDTSKNQFFLQLNSVTTEDTATYYCARWAYDGPWGQGTLVTVSA
VL: QIVLSQSPALLSASPGEKVTMTCRASSSVSHMHWYQQKPGSSPKPWIYATSNLASGVPARFSGSGSGTSYSLTITRVEAEDAATYYCQQWSSNPFTFGSGTKLEIKR
notes: murine antibody from hybridoma
B2: mAb 1F91 (antibody, IgG1, V domains shown)
VH: B1 VH
VL: B1 VL
notes: Murine mIgG1, kappa light chain
B3: mAb 2F35 (antibody, IgG1, V domains shown)
VH: EVQLQQSGAELVRPGALVKLSCKASGFNIKDYYIHWVKQRPEQGLEWIGWIDPENGNTIFDPKFQGRASITADTSSNTAYLQLSSLTSEDTAVYYCAGRWYAMDYWGQGTSVTVSS
VL: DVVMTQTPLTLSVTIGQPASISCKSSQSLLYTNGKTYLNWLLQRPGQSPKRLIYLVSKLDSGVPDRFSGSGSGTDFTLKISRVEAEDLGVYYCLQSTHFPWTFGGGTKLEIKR
notes: as for B2
B4: mAb 2F22 (antibody, IgG1, V domains shown)
VH: QVQLKQSGPGLVQPSQSLSITCTVSGFSLTNYGVHWVRQSPGKGLEWLAVIWRGGSIDYNAAFMSRLSITKDNSKSQVFFKMNSLQADDTAIYYCAKNSHGNYVGYAMDYWGQGTSVTVSS
VL: GIVMTQSQKFMSTTVGDRVSITCKASQSVGPAVAWYQQKPGQSPKLLIYSASNRYTGVPDRFTGSGSGADFTLTISNLHSEDLADYFCQQYTSYPTFGGGTKLEIKR
notes: as for B2
B5: mAb 2F3 (antibody, IgG1, V domains shown)
VH: B4 VH with T30S, N31S, A49G, I57T, Y59F, L67V, I69F
VL: DIVMTQSQKFMSTTVGDKVSIPCKASENVGAAVAWYQQKPGQSPTLLIYSASNRYTGIPDRFTGSGSGTDFTLTIRTVQSEDLADYFCQQYTNYPTFGGGTKLEIKR
notes: as for B2
B6: Fab 0296 (Fab, V domains shown)
VH: B4 VH
VL: B4 VL
notes: Chimeric Fab of mAb 2F22; heavy chain truncated after the human IgG4 hinge lysine; also called anti-TFPI2F22 Fab
B7: Fab 0295 (Fab, V domains shown)
VH: B4 VH
VL: B4 VL
notes: Chimeric Fab of mAb 2F22; heavy chain truncated after the first cysteine of the human IgG4 hinge
B8: FXa (enzyme)
chain 1: ANSFLEEMKKGHLERECMEETCSYEEAREVFEDSDKTNEFWNKYKDGDQCETSPCQNQGKCKDGLGEYTCTCLEGFEGKNCELFTRKLCSLDNGDCDQFCHEEQNSVVCSCARGYTLADNGKACIPTGPYPCGKQTLER
chain 2: IVGGQECKDGECPWQALLINEENEGFCGGTILSEFYILTAAHCLYQAKRFKVRVGDRNTEQEEGGEAVHEVEVVIKHNRFTKETYDFDIAVLRLKTPITFRMNVAPACLPERDWAESTLMTQKTGIVSGFGRTHEKGRQSTRLKMLEVPYVDRNSCKLSSSFIITQNMFCAGYDTKQEDACQGDSGGPHVTRFKDTYFVTGIVSWGEGCARKGKYGIYTKVTAFLKWIDRSMKTRGLPKAKSHAPEVITSSPLK

biological target: T1, human TFPI (1-79) (human, UniProt P10646 29-107); test: SPR Biacore T200; mAb captured on anti-mouse Ig; TFPI as analyte; 1:1 model
T1 construct: Acidic N-terminal region and KPI-1 domain
Source text: (§1) Binding interaction data were obtained by means of Surface Plasmon Resonance in a Biacore T200 instrument. Polyclonal rabbit anti-mouse immunoglobulin (Mouse Antibody Capture Kit, GE Healthcare) was immobilized to a series S CM4 sensor chip (GE Healthcare) in flow-cells 1-4 using the amine coupling protocol available with the Biacore T-200 control software version 2.0 (GE Healthcare) and the reagents provided with the Amine Coupling Kit (GE Healthcare). The relevant mouse monoclonal antibody was captured in flow cell 2, 3, or 4 at a fixed concentration. Different concentrations of human TFPIα or TFPI (1-79) were tested by diluting the sample in running buffer (10 mM HEPES, pH 7.4, 300 mM NaCl, 5 mM CaCl₂, 0.05% Surfactant P20, 1 mg/ml BSA). Each sample was assayed using 300 seconds of contact time followed by 420-600 seconds of dissociation time at 30 μl/min flow rate. A buffer blank was also assayed. The sensor surface was regenerated with 10 mM Glycine pH 1.7 either for 180 sec at 30 μl/min flow rate or with two cycles each of 30 seconds at 30 μl/min flow rate.
(§2) The Biacore T200 Evaluation software (version 2.0) was used to analyse the data. Determination of binding constants (kₐ, kd, KD) was obtained assuming a 1:1 interaction of TFPI and the monoclonal antibody of interest.

Kd [nM] | koff [s⁻¹] | kon [M⁻¹ s⁻¹] | Binder
13.5 | 0.00505 | 375000 | B1
15.1 | 0.005 | 330000 | B2
13.3 | 0.00251 | 188000 | B3
0.965 | – | – | B4
0.561 | 0.000154 | 274000 | B5

biological target: T2, human TFPIα (human, UniProt P10646 29-304); test: as above
T2 construct: recombinant full-length TFPIα in the assays; also called TFPI alpha; full-length TFPIα
Source text: as §1, §2

Kd [nM] | koff [s⁻¹] | kon [M⁻¹ s⁻¹] | Binder
9.81 | 0.00361 | 368000 | B1
10 | 0.00349 | 347000 | B2
6.27 | 0.00141 | 224000 | B3
0.688 | – | – | B4
0.448 | 7.69e-05 | 172000 | B5

biological target: T2, human TFPIα; test: SPR Biacore T200; Fab captured on Human Fab Binder; TFPIα as analyte; 1:1 model; 25 °C
Description: Human Fab Binder (Human Fab Capture Kit, GE Healthcare) was immobilized to a series S CM4 sensor chip (GE Healthcare) in flow-cells 1-4 at 9000-10000 response units (RU) using the amine coupling protocol available within the Biacore T-200 control software (GE Healthcare) and the reagents provided with the Amine Coupling Kit (GE Healthcare). […] Different concentrations of human TFPIα were tested by diluting the sample in running buffer (10 mM HEPES, pH 7.4, 300 mM NaCl, 5 mM CaCl₂, 0.05% Surfactant P20, 1 mg/ml BSA). Each sample was assayed using 300 seconds of contact time followed by 600 seconds of dissociation time at 50 μl/min flow rate. A buffer blank was also assayed. The sensor surface was regenerated with 10 mM Glycine pH 2.1 with two cycles each of 30 seconds at 50 μl/min flow rate. The analysis temperature was 25° C. and the sample compartment temperature 10° C.
as §2

Kd [nM] | Binder
0.72 | B6
0.41 | B7

biological target: T2, human TFPIα; test: SPR Biacore T200; TFPIα held by captured mAb 2F48

fold decrease of the affinity for TFPI to FXa, against TFPI bound to mAb 4F110 [fold] | Binder
< 10 | B8

biological target: T2, human TFPIα; test: SPR Biacore T200; TFPIα held by captured mAb 2F22

fold decrease of the affinity for TFPI to FXa, against TFPI bound to mAb 4F110 [fold] | Binder
> 30 | B8

biological target: T2, human TFPIα; test: cell-based or functional assay

Thrombin peak height (Peak); thrombin generation in FVIII-neutralised plasma + 5 nM TFPIα, 10 nM antibody [nM] | Thrombin peak height (Peak); thrombin generation in FVIII-neutralised plasma, no TFPIα added (plasma TFPI), 10 nM antibody [nM] | time to peak (ttPeak); thrombin generation in FVIII-neutralised plasma + 5 nM TFPIα, 10 nM antibody [min] | time to peak (ttPeak); thrombin generation in FVIII-neutralised plasma, no TFPIα added (plasma TFPI), 10 nM antibody [min] | Binder
3.7 | 35.2 | 47.8 | 8.9 | B1
3.6 | 34.6 | 51.8 | 9 | B2
3.6 | 30.4 | 70.3 | 9.6 | B3
46.5 | 100 | 11.3 | 9.1 | B4
28.6 | 88.4 | 13.8 | 9.3 | B5

biological target: T2, human TFPIα; test: cell-based or functional assay; remark: another data set of the same source

FXa activity (%); remaining FXa amidolytic activity after 40 min, 32 nM mAb pre-incubated with 8 nM TFPIα [%] | Binder
5.5 | B1
5.8 | B2
13.4 | B3
50.4 | B4
48.9 | B5

biological target: T2, human TFPIα; test: cell-based or functional assay; remark: another data set of the same source

FXa activity (%); FXa generated after 30 min by FVIIa/Innovin/FX with 4 nM TFPIα, 64 nM antibody [%] | Binder
18.4 | B1
13.9 | B2
18.3 | B3
40.5 | B4
36.6 | B5

biological target: T2, human TFPIα; test: cell-based or functional assay; remark: another data set of the same source

FVIIa/sTF activity (%); 150 nM TFPIα, 200 nM antibody [%] | FXa activity (%) after 100 min incubation; 4 nM TFPIα, 20 nM antibody [%] | Binder
82.2 | 5.1 | B2
61.4 | 4.2 | B3
88.3 | 60.8 | B4
88.6 | 58.1 | B5

biological target: T2, human TFPIα; test: cell-based or functional assay; remark: another data set of the same source

Thrombin peak height (Peak); thrombin generation in FVIII-neutralised plasma + 20 nM TFPIα, 200 nM antibody [nM] | Binder
0 | B2
0 | B3
23.7 | B4
20.9 | B5
